What was measured:
[1] = target: T1, zif268 (EGR1 DNA-binding domain), cleaved (UniProt P08046 333-421); experiment: EMSA; EMSA: binding on ice, at least 1 h, native PAGE 8% (oligos) or 3.5% (1 kb), salt up to 1 M KCl; nanopore: 1 M KCl, 30 min incubation at 200:1 protein:DNA; pH no
[2] = target: T2, zif268_GST (uncleaved fusion) (UniProt P08046 333-421); experiment: as above
[3] = target: T1, zif268 (EGR1 DNA-binding domain), …; experiment: EMSA; 1:300 DNA:protein; EMSA: binding on ice, at least 1 h, native PAGE 8% (oligos) or 3.5% (1 kb), salt up to 1 M KCl; nanopore: 1 M KCl, 30 min incubation at 200:1 protein:DNA; pH no
[4] = target: T2, zif268_GST (uncleaved fusion); experiment: as above
[5] = target: T1, zif268 (EGR1 DNA-binding domain), …; experiment: EMSA; up to 1 M KCl; binding saturates at about 1:200 DNA:protein; EMSA: binding on ice, at least 1 h, native PAGE 8% (oligos) or 3.5% (1 kb), salt up to 1 M KCl; nanopore: 1 M KCl, 30 min incubation at 200:1 protein:DNA; pH no

B1: (-) 50 bp oligo, no site (dsDNA)
DNA 1: CAGTATGCAAATGACTGCAGTATGCAAATGACC
DNA 2: TCGAGGTCATTTGCATACTGCAGTCATTTGCATACTGGTAC
- binding result [1]: no binding
- binding result [2]: no binding

B2: (+) 50 bp oligo, 2 sites separated by 6 bp (dsDNA)
DNA 1: CAGGCGTGGGCGCTGCAGGCGTGGGCGCC
DNA 2: TCGAGGCGCCCACGCCTGCAGCGCCCACGCCTGGTAC
- binding result [3]: binds
- binding result [4]: binds

B3: Atto-647 50 bp oligo, 1 site (dsDNA)
DNA 1: AGTCTGTTACGCTGGCCTCTGCGTGGGCGAATTCGCATGCGCAACCCCAC
DNA 2: GTGGGGTTGCGCATGCGAATTCGCCCACGCAGAGGCCAGCGTAACAGACT
- binding result [5]: binds
